Experimental findings from paper PMC4824898 (2016) are described below.

For this assay, the target named is rabbit skeletal muscle actin (Oryctolagus cuniculus (Rabbit), UniProt P68135). Kind of assay: actin co-sedimentation; polymerised (filamentous) actin.

B1: actin-binding domain (ABD) of S. pombe α-actinin (protein)
chain: MQANQWQSVQNRTFTKWFNTKLSSRDLPSVFDLRKDLSDGILLIQLLEIIGDENLGRYNRNPRMRVHRLENVNKALEYIKSKGMPLTNIGPADIVDGNLKLILGLIWTLILRFTIADINEEGLTAKEGLLLWCQRKTANYHPEVDVQDFTRSWTNGLAFCALIHQHRPDLLDYNKLDKKNHRANMQLAFDIAQKSIGIPRLIEVEDVCDVDRPDERSIMTYVAEYFHAFSTLDK
Consider B1, for which the binding result was “no binding”.
